Assays:
[1] = Thermostability assay: residual OTA detoxification activity after 10 min incubation at 45-99° C. (T50); type: physicochemical; conditions: 0.1 mg/mL protein in 20 mM Tris-HCl pH 7.5, residual OTA detoxification activity relative to 4° C. reference aliquot
Method: Stability was determined in terms of thermostability. Notwithstanding, a person having skill in the art is aware that stability towards high temperature (e.g. more than 30° C.) often correlates with stability towards other non-standard conditions such as stability towards acidic or basic pH (e.g. below pH 6.5 or above pH 7.5, respectively), towards elevated salt concentrations, organic solvents or drying.
To determine the kinetic stability of the produced enzymes, thermostability assays were performed. To this end, purified protein samples were diluted to a protein concentration of 0.1 mg/mL in 20 mM Tris-HCl buffer pH 7.5 and aliquots were incubated in a thermocycler for 10 min at either 45, 55, 65, 75, 80, 85, 90, 95 or 99° C. After this incubation, the aliquots were stored at 4° C. until further analysis. A reference aliquot was stored at 4° C. throughout the incubation. Subsequently, all aliquots were assayed for residual OTA detoxification activity using the assay described in Example 3. Residual enzyme activities were calculated relative to the reference aliquot. The temperature range in which 50% of the initial activity was lost after the incubation (T50), in relation to the reference aliquot was determined.

[2] = OTA detoxification activity assay (specific activity, fluorescence reduction ex/em 390/450 nm); type: biochemical; conditions: 37° C., 200 ng/mL OTA, 100 mM sodium phosphate buffer
In short: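 Recombinant enzyme preparation with 200 ng/mL OTA in 100 mM sodium phosphate, at pH 6.0 and pH 7.5, 37° C. Degradation followed as the fall in fluorescence at ex/em 390/450 nm. Specific activity taken from the initial linear slope; one unit degrades 1 μmol OTA per min at a starting OTA of […].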

B1: 20 (protein)
chain: MTTRFRILTAVLSLLAASACAADAAPATPHTVVLRAARMFDGASGKLVERPQLTIVGNKIVRIAQADKAEVPAGAEVIDLGDSTLLPGFIDAHVHLSGQGSDNWYGDFFDNMMRFPAEQALYGAYYARITLEAGFTSVRDLGSTDWVALGLRNAIDAGKVPGPRMLVSNYAVGSTGGHADQDPIPPHKLPLAGPLQGVCNGPEECRAAVRYQIKYGANVIKFMPSGGVLSLSDPVDAPELSQDEMNAVIGESHAWGRKVAAHAHGDKAAKMAVAAGVDSIEHGSFIEDDTLRAMKAKNVYLVPTISAIAHVEEKIGTFPPVIAEKGRAAAAHLRQTFRHAVQIGVPIALGTDAGVGAHGTNAREFRYMVENGLTPAQSLLAGTSNAARLLGTIDKVGTLEAGKLADVVAVPGNPIADITVTERPVFVMKDGVVVRRGAVR
modifications: polypeptide 6
In the case of B1, the “T50 (temperature at which 50% of the initial activity was maintained)” value [1] is reported as under 45 °C, the “Specific OTA detoxification activities in U/g at pH 6.0” value [2] is reported as 49.73 U/g and the “Specific OTA detoxification activities in U/g at pH 7.5” value [2] is reported as 100.52 U/g.

B2: 21 (protein)
chain: MTTPTRILTAVLALLASNACAADATPSTPHTVVLRAARMFDGASGKLVERPQLTIVGNKIVRIAQADKADVPAGAEVIDLGDATLLPGFIDAHVHLSGQGSDNWYGDFFDNMMRFPAEQALYGAYYARITLEAGFTSVRDVGSTDWVALGLRNAIDAGKVPGPRMLVSNYAVGSTGGHADQDPIPPHKLPLAGPLQGVCNGPEECRAAVRYQIKYGANVIKFMPSGGVLSLSDPVDAPELSQDEMNAVIGESHAWGRKVAAHAHGDKAAKMAVAAGVDSIEHGSFIEDDTLRAMKAKGVYLVPTISAIAHVEEKIATFPPVIAEKGRAAAAHLRQTFRHAVQIGVPIALGTDAGVGAHGTNAREFRYMVENGLSPAQSLLAGTSNAARLLGTIDRVGTLEAGKLADVVAVPGNPIADITVTERPVFVMKDGVVVRRGAVR
modifications: polypeptide 7
With B2 the “T50 (temperature at which 50% of the initial activity was maintained)” value [1] was 65-75 °C, the “Specific OTA detoxification activities in U/g at pH 6.0” value [2] was 20.53 U/g and the “Specific OTA detoxification activities in U/g at pH 7.5” value [2] was 30.87 U/g.

B3: 22 (protein)
chain: MQYDVAIKNGNVFTGTEFIGKMNIYISNGKISKVSKEDLNAKQEIDAKDMLVMPGLIDAHMHISGLKGGSLLKIMFEKPEYRALRATKWLEKLLLAGFTTVRDCGEPISISLKRAVNEGYIKGPKIIAAGKPITQTFGHGEFSHDIPLEFSISLGFSEICDGTESCIHAARKVLRDGSDFIKIFATGGVLSQRDRPDMPQLSFDEIRAIVNEAEKAGTYVAAHAHGDKGARIAIEAGIKTLEHGSLLKEDTLKLMLEKNISLTPTLTITEIIYKYGKTIGVDEWGLEKIVEVRENLHKVLRKAKELGITIITGTDMGFETGLEDYDIGKNWTEILLLTEVGGLSNEEALRAATYNSAKALGLNSGLIDEGKDADIIVIDGNPLENIKDVSKVVHVIKQGKLEVLDGKIINNY
modifications: polypeptide 8
With B3 the “T50 (temperature at which 50% of the initial activity was maintained)” value [1] was over 95 °C, the “Specific OTA detoxification activities in U/g at pH 6.0” value [2] was 0.66 U/g and the “Specific OTA detoxification activities in U/g at pH 7.5” value [2] was 0.79 U/g.

B4: 368 (protein)
chain: MTTPTRILTAVLSLLAANACAADAAPATPHTVVLRAARMFDGASGKLVERPQLTIVGNKIVRIAQADKADVPAGAEVIDLGDATLLPGFIDAHVHLSGQGSDNWYGDFFDNMMRFPAEQALYGAYYARITLEAGFTSVRDVGSTDWVALGLRNAIDAGKVPGPRMLVSNYAVGSTGGHADQDPIPPHKLPLAGPLQGVCNGPEECRAAVRYQIKYGANVIKFMPSGGVLSLSDPVDAPELSQDEMNAVIGESHAWGRKVAAHAPGDKAAKMAVAAGVDSIEHGSFIEDDTLRAMKAKGVYLVPTISAIAHVEEKIATFPPVIAEKGRAAAAHLRQTFRHAVQIGVPIALGTDAGVGAHGTNAREFRYMVENGLSPAQSLLAGTSNAARLLGTIDRVGTLEAGKLADVVAVPGNPIADITVTERPVFVMKDGVVVRRGAVR
modifications: exemplary polypeptide
In the case of B4, the “T50 (temperature at which 50% of the initial activity was maintained)” value [1] is reported as 68 °C, the “Specific OTA detoxification activities in U/g at pH 6.0” value [2] is reported as 3.70 U/g and the “Specific OTA detoxification activities in U/g at pH 7.5” value [2] is reported as 15.10 U/g.
